Experimental data reported in PMC2120984.
Where two headings read alike, the source gives them in different places.

Tests used:
[1] = target: alpha v integrins of OV10 cells (human (endogenous in OV10)); test: binding of protein-coated beads to adherent cells
[2] = target: alpha v integrins of OV10 cells (human (endogenous in OV10)); test: binding of protein-coated beads to adherent cells; remark: listed apart in the source

“Vitronectin (from UniProt P04004) (ligand)” gave an attachment index (beads bound per 100 cells) (beads bound per 100 cells) [1] of 181 and an attachment index (beads bound per 100 cells) (beads bound per 100 cells) [2] of 373.
